Reference: doi:10.1101/2025.04.29.650001 (bioRxiv, 2025)
Substitutions are numbered along the chain they refer to.

B1: Fluoroacetate dehalogenase (FAcD) wild type (enzyme, Rhodopseudomonas palustris, UniProt Q6NAM1 1-302, looked up)
chain: MPDLADLFPGFGSEWINTSSGRIFARVGGDGPPLLLLHGFPQTHVMWHRVAPKLAERFKVIVADLPGYGWSDMPESDEQHTPYTKRAMAKQLIEAMEQLGHVHFALAGHDRGARVSYRLALDSPGRLSKLAVLDILPTYEYWQRMNRAYALKIYHWSFLAQPAPLPENLLGGDPDFYVKAKLASWTRAGDLSAFDPRAVEHYRIAFADPMRRHVMCEDYRAGAYADFEHDKIDVEAGNKIPVPMLALWGASGIAQSAATPLDVWRKWASDVQGAPIESGHFLPEEAPDQTAEALVRFFSAAP
B2: Fluoroacetate dehalogenase (FAcD) Ser157Ala (enzyme, Rhodopseudomonas palustris, UniProt Q6NAM1 1-302, looked up)
chain: B1 chain with S157A
B3: Fluoroacetate dehalogenase (FAcD) Ser157Thr (enzyme, Rhodopseudomonas palustris, UniProt Q6NAM1 1-302, looked up)
chain: B1 chain with S157T

Target: the molecule itself
Test: crystal structure

Protein	binding result
B1	binds
B2	binds
B3	binds
